Measurements: patent US9347884B2, “Microfluidic device with direct sample heating via electromagnetic radiation” (UCL BUSINESS PLC, priority 2009, dated 2016)
Like-named read-outs stand apart in the source and are kept apart here.

Key:
[1] = Equilibrium denaturation of FKBP-12 proteins by GdnHCl, capillary method; assay type: physicochemical
Protocol: Samples were measured and averaged for 100 laser pulses. […] Error bars shown are standard deviations.
(§1) The experimental detail was as set out below:
(§2) Equilibrium denaturation of wild-type FKBP-12: 50 μl, of FKBP-12 stock (50 μM FKBP-12, 5 mM DTT, 50 mM Tris.HCl, pH 7.5) was added to each well of a UV transparent Costar (Corning, Lowell, Mass., USA) 96-well plate. […] Samples were sealed and equilibrated for 17 hours at 22° C. prior to measurement of intrinsic protein fluorescence in a Fluostar Optima plate reader as above. The same samples were then used to measure intrinsic protein fluorescence in the micro-capillary device for a direct comparison.
(§3) Data for the observed fluorescence (Fobs) as a function of denaturant concentration ([D]) were fit using SigmaPlot 10.0 (Systat Software, Hounslow, UK) to the equation below: […]
(§4) The free energy of protein denaturation in water ΔGH2O was calculated as mGC1/2, using the fitted mG, where we set the denaturant dependent free energy (ΔGobs) to zero in the equation below when [D] is equal to C1/2. ΔGobs=ΔGH2O+mG[D] Values of ΔGH2O were used to calculate the change in free energy of the mutant or ligand bound protein, ΔΔGX-WT, relative to un-liganded wild-type FKBP-12. The change in free energy of unfolding upon ligand binding, ΔΔGbinding, was calculated for each mutant from the values of ΔGH2O for liganded FKBP-12 relative to ΔGH2O for non-liganded FKBP-12.

[2] = Literature, cited from earlier work
[3] = Equilibrium denaturation of FKBP-12 proteins by GdnHCl, microplate method; assay type: physicochemical
Protocol: as §1, §2, §3, §4

[4] = Example 1 GdHCl denaturation of FKBP-12, capillary intrinsic fluorescence; assay type: physicochemical; details: 2 μM FKBP-12, GdHCl, 1 mM DTT, 50 mM Tris.HCl pH 7.5, 20° C.
Excerpt: The configuration comprises a laser 5 (QUV266-02, Crystalaser, Reno, Nev.) of wavelength 266 nm, 5 mW, pulsed at 1 kHz; a bandpass filter (newport), at 266 nm 15; a converging lens (SPX010AR.10, Newport) 16; a 100 μm internal diameter capillary (FS-110, Upchurch™) 1; and a photo multiplier tube (R1166PMT, Hamamatsu, Japan) 7; linked to a data acquisition system consisting of a PC expansion card (PXI-5124, National Instruments), for capture and analysis of the data in Labview (National Instruments). […] Samples were measured and averaged for 100 laser pulses. […] A fluorescence relative intensity of 1500 at a concentration of 0 mg ml^−1 of BSA corresponds to the background signal of the setup generated by excitation radiation.
The denaturation experiment was repeated for another protein using 2 μM FKBP-12. […] The stability was measured using the denaturant guanidinium hydrochloride (GdHCl) in 1 mM dithiothreitol (DTT), 50 mM Tris.HCl at pH 7.5 and at 20° C., using a flow rate of 10 μL/min through the capillary. The fluorescence of FKBP with various concentrations of GdHCl (from 0M to 3M) was measured. […] C1/2 represents the denaturant concentration at which half of the protein is in the unfolded state.

[5] = GdnHCl, 50 mM Tris.HCl pH 7.5, 1 mM DTT
[6] = GdnHCl, mG from each independent curve fit
[7] = GdnHCl, using average mG values
[8] = relative to wild-type FKBP-12 without rapamycin, from ΔGH2O

FKBP-12 wt: Wild-type FKBP-12 expressed and purified from a GST-FKBP fusion gene in E. coli BL21 cells
mG ([1]; GdnHCl): 5.4 ± 0.7 kcal mol^−1 M^−1 | C1/2 (transition mid-point) [1, 5]: 0.74 ± 0.02 M | ΔGH2O [1, 6]: 4.03 ± 0.5 kcal/mol | ΔG<mG> [1, 7]: 3.84 ± 0.3 kcal/mol | ΔΔGX-WT [1, 8]: 0 kcal/mol | C1/2 (transition mid-point) ([2]; GdnHCl): 0.78 ± 0.005 M | mG ([2]; GdnHCl): 6.6 ± 0.3 kcal mol^−1 M^−1 | ΔGH2O ([2]; GdnHCl): 5.13 ± 0.2 kcal/mol | ΔΔGX-WT ([2]; relative to wild-type FKBP-12 without rapamycin): 0 kcal/mol | mG ([3]; GdnHCl): 6.6 ± 0.4 kcal mol^−1 M^−1 | C1/2 (transition mid-point) [3, 5]: 0.77 ± 0.01 M | ΔGH2O [3, 6]: 5.05 ± 0.3 kcal/mol | ΔG<mG> [3, 7]: 4.72 ± 0.3 kcal/mol | ΔΔGX-WT [3, 8]: 0 kcal/mol | mid-point of denaturation (C1/2), absence of rapamycin [4]: 0.65 M
